Test results as given in patent US20240269176A1.

Columns and labels:
[1] = target: VH1VL1-CD8ATD-CD137CSD-CD3zSSD fusion
[2] = target: VH3VL1-CD8ATD-CD137CSD-CD3zSSD fusion
[3] = target: VH2VL1-CD8ATD-CD137CSD-CD3zSSD fusion
[4] = target: VL1VH3-CD8ATD-CD137CSD-CD3zSSD fusion
VL1VH3-CD8ATD-CD137CSD-CD3zSSD fusion, sequence (chain, as listed by the source): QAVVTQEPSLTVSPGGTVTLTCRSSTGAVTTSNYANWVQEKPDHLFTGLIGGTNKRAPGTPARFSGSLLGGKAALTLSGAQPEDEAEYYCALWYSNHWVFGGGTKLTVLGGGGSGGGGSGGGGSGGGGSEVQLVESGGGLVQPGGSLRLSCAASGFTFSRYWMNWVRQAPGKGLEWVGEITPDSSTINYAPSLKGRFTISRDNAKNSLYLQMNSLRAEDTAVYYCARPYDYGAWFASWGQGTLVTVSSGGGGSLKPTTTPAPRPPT

VH2VL1-CD8ATD-CD137CSD-CD3zSSD fusion, sequence (chain, as listed by the source): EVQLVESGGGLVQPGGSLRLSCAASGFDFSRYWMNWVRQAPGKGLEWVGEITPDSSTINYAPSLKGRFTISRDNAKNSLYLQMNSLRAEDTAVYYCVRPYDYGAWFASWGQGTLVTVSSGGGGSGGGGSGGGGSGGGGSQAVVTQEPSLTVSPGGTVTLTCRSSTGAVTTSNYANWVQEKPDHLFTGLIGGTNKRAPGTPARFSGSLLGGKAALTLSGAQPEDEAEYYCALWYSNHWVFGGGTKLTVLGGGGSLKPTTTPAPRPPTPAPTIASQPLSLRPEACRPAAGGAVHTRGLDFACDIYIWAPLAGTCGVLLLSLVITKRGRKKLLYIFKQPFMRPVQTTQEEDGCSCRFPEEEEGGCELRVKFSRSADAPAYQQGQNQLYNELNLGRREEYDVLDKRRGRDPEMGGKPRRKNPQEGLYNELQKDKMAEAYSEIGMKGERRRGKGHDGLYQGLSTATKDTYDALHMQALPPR
VH3VL1-CD8ATD-CD137CSD-CD3zSSD fusion, sequence (chain, as listed by the source): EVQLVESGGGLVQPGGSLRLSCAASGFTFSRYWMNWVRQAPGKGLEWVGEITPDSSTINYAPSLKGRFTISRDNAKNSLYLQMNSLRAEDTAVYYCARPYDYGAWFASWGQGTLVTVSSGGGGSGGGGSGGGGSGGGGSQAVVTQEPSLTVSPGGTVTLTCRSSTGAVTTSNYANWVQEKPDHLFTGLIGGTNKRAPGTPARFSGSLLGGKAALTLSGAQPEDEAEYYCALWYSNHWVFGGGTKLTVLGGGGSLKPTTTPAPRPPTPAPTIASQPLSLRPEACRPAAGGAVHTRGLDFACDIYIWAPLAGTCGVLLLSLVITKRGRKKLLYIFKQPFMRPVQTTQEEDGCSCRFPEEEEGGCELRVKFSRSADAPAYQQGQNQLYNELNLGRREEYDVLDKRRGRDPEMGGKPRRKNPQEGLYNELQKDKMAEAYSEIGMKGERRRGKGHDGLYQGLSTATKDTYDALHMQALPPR
VH1VL1-CD8ATD-CD137CSD-CD3zSSD fusion, sequence (chain, as listed by the source): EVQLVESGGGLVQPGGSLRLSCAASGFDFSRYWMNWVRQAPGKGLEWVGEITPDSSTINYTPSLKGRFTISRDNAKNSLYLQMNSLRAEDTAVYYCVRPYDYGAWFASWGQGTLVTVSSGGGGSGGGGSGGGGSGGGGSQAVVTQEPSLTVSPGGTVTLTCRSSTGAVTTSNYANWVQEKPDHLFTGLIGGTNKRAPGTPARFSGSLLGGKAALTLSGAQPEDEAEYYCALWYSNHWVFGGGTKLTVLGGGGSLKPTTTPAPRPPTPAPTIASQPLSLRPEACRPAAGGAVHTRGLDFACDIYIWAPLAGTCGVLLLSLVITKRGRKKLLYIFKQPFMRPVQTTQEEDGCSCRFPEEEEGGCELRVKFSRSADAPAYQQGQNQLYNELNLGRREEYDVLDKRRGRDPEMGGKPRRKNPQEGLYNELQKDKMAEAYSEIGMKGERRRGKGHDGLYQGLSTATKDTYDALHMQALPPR

EC50 of NFAT-luciferase activation of anti-P329G CAR Jurkat cells, WSUDLCL2 target cells (5:1); VH1 x VL1 [1]: 8.14 pM | EC50 of NFAT-luciferase activation of anti-P329G CAR Jurkat cells, WSUDLCL2 target cells (5:1); VH3 x VL1 [2]: 5.82 pM | EC50 of NFAT-luciferase activation of anti-P329G CAR Jurkat cells, WSUDLCL2 target cells (5:1); table row VH2 x VL1 [3]: 10.4 pM | EC50 of NFAT-luciferase activation of anti-P329G CAR Jurkat cells, WSUDLCL2 target cells (5:1); VL1 x VH 3 [4]: 6.19 pM
Substance: anti-CD20 (GA101) D246A P329G IgG1 (antibody)
